Test results as given in the RNAGym collection of RNA variant scans (doi:10.1073/pnas.2313332121).

B1: TPR t1 (parent)
chain: GACCAAUCUGCCCUCAGAGCUCGAGAACAUCUUCGGAUGCAGAGGAGGCAGGCUUCGGUGGCGCGAUAGCGCCAACGUCCUCAACCUCCAAUGCAUCCCACCACAUGAUGAUGCCUGAAGAGCCUUGGUUUUUUG

Variants of: B1
Assay: polymerase ribozyme fitness, log enrichment relative to wild type (log ratio); higher = more active; in vitro selection for triplet polymerase activity
Summary of the method: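 After PCR construction and transcription, each subunit's mutant library from a heterodimeric triplet polymerase ribozyme was annealed with a biotinylated primer, the partner subunit and triplets. Incubation was frozen, at −7 °C, and extended constructs were gel-excised, bound to streptavidin beads and amplified by RT-PCR, in one selection round done in triplicate. Fitness is the logarithm of a genotype's enrichment divided by that of the wild type, from inverse-variance-weighted replicate averages of Illumina-sequenced inputs and outputs. The base of the logarithm is 2, and genotypes needed ≥10 input reads and ≥1 read per output.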

For C8A C40A A43G G60A, which “polymerase ribozyme fitness (log ratio)” value is on record?
The value was -3.37.

With C8A C40A A43G G60C as the variant, how does the “polymerase ribozyme fitness (log ratio)” value read?
Its value is -3.55.

Which “polymerase ribozyme fitness (log ratio)” value does the source give for C8A C53A U92A A121U here?
Its value is -1.12.

For C8A C62A, which “polymerase ribozyme fitness (log ratio)” value is on record?
The value was -0.709.

With C8A C104A G120A as the variant, how does the “polymerase ribozyme fitness (log ratio)” value read?
The value was 1.08.

For C8A C40G C88A A111C, which “polymerase ribozyme fitness (log ratio)” value is on record?
Its value is -1.02.

With C8G A18C C89A as the variant, how does the “polymerase ribozyme fitness (log ratio)” value read?
Its value is -0.827.

With C8G A16C C62A G71A G120C as the variant, how does the “polymerase ribozyme fitness (log ratio)” value read?
The value was -1.27.

For C8A G44C U106G, which “polymerase ribozyme fitness (log ratio)” value is on record?
The value was -1.03.

For C8A G135U, which “polymerase ribozyme fitness (log ratio)” value is on record?
The value was -0.432.

With C8A G10A C86U G120C as the variant, how does the “polymerase ribozyme fitness (log ratio)” value read?
Its value is 1.44.

Which “polymerase ribozyme fitness (log ratio)” value does the source give for C8A G51C C53A A66U C88A C114A here?
The value was -6.04.

With C8A G113U as the variant, how does the “polymerase ribozyme fitness (log ratio)” value read?
Its value is -1.81.

Which “polymerase ribozyme fitness (log ratio)” value does the source give for C8G A16G A41G here?
The value was 0.487.

With C8A U96C U116G as the variant, how does the “polymerase ribozyme fitness (log ratio)” value read?
Its value is -0.0172.

With C8A U92C as the variant, how does the “polymerase ribozyme fitness (log ratio)” value read?
Its value is -0.565.

For C8G A18C A37C C64G A90U U106A C123A U131A, which “polymerase ribozyme fitness (log ratio)” value is on record?
The value was -6.48.

For C8A G47C G48A G58A G60U, which “polymerase ribozyme fitness (log ratio)” value is on record?
The value was -1.54.

For C8A G61A C115U, which “polymerase ribozyme fitness (log ratio)” value is on record?
The value was -0.118.

Which “polymerase ribozyme fitness (log ratio)” value does the source give for C8A C70U C72U here?
The value was -0.317.

Which “polymerase ribozyme fitness (log ratio)” value does the source give for C8A C72G here?
Its value is 0.254.

With C8G A18U C22G G117U as the variant, how does the “polymerase ribozyme fitness (log ratio)” value read?
The value was -2.97.

With C8A G48U as the variant, how does the “polymerase ribozyme fitness (log ratio)” value read?
The value was -0.337.

Which “polymerase ribozyme fitness (log ratio)” value does the source give for C8A G57C C64U C123U U129A U133G here?
Its value is 1.06.

With C8A G47A C49G C70A U78C as the variant, how does the “polymerase ribozyme fitness (log ratio)” value read?
The value was -3.7.

With C8A G36C G60U as the variant, how does the “polymerase ribozyme fitness (log ratio)” value read?
Its value is -0.605.

With C8G A26G G57U A119G U130G as the variant, how does the “polymerase ribozyme fitness (log ratio)” value read?
Its value is -0.722.

For C8A G63U A119U, which “polymerase ribozyme fitness (log ratio)” value is on record?
The value was -1.39.

For C8G A16G C56G A83C, which “polymerase ribozyme fitness (log ratio)” value is on record?
Its value is 0.0154.

Which “polymerase ribozyme fitness (log ratio)” value does the source give for C8A U130G here?
Its value is 0.269.

With C8A C56A C72G as the variant, how does the “polymerase ribozyme fitness (log ratio)” value read?
Its value is -1.07.

Which “polymerase ribozyme fitness (log ratio)” value does the source give for C8A C49A C86U G93U C94U C123A here?
The value was -0.367.

Which “polymerase ribozyme fitness (log ratio)” value does the source give for C8A C82A A90C here?
Its value is -1.03.

For C8A G35A C123A, which “polymerase ribozyme fitness (log ratio)” value is on record?
The value was -1.9.

For C8A C40U A90C, which “polymerase ribozyme fitness (log ratio)” value is on record?
Its value is -0.703.

With C8A U21A C34G U109G as the variant, how does the “polymerase ribozyme fitness (log ratio)” value read?
The value was -6.49.

For C8A C86U, which “polymerase ribozyme fitness (log ratio)” value is on record?
Its value is 0.466.

With C8A C86A as the variant, how does the “polymerase ribozyme fitness (log ratio)” value read?
Its value is 0.557.

Which “polymerase ribozyme fitness (log ratio)” value does the source give for C8A C86G here?
The value was -1.3.

With C8A G44C G57C G117C U126A as the variant, how does the “polymerase ribozyme fitness (log ratio)” value read?
The value was -5.88.

Which “polymerase ribozyme fitness (log ratio)” value does the source give for C8A U133A here?
Its value is 0.119.

For C8A C72U U78A G93C C101A, which “polymerase ribozyme fitness (log ratio)” value is on record?
The value was -1.75.

For C8A G117A A121U, which “polymerase ribozyme fitness (log ratio)” value is on record?
Its value is 1.21.

Which “polymerase ribozyme fitness (log ratio)” value does the source give for C8A C114G here?
The value was -2.41.

Which “polymerase ribozyme fitness (log ratio)” value does the source give for C8G A24C U38G G44A G63A C88U A95C G117U here?
Its value is -7.47.

For C8A C53A C82A A108U, which “polymerase ribozyme fitness (log ratio)” value is on record?
The value was -5.69.

For C8A C80A, which “polymerase ribozyme fitness (log ratio)” value is on record?
The value was -1.88.

For C8A G42A C73U, which “polymerase ribozyme fitness (log ratio)” value is on record?
The value was -1.21.

With C8A G39A G44C C82U C86U G127C as the variant, how does the “polymerase ribozyme fitness (log ratio)” value read?
The value was -2.71.

With C8A G35C G63A C98A as the variant, how does the “polymerase ribozyme fitness (log ratio)” value read?
The value was -6.69.

With C8A C70U C89A G120A as the variant, how does the “polymerase ribozyme fitness (log ratio)” value read?
The value was -0.458.

With C8A G44A A105G as the variant, how does the “polymerase ribozyme fitness (log ratio)” value read?
The value was -3.51.

Which “polymerase ribozyme fitness (log ratio)” value does the source give for C8A C56U A83U G93A here?
The value was 0.0132.

For C8G A16U, which “polymerase ribozyme fitness (log ratio)” value is on record?
Its value is 0.648.

With C8A G17C G63U U96C C97A G113U as the variant, how does the “polymerase ribozyme fitness (log ratio)” value read?
Its value is -6.74.

Which “polymerase ribozyme fitness (log ratio)” value does the source give for C8A U87A G107C here?
Its value is -4.36.

With C8A G44U G52A C72A as the variant, how does the “polymerase ribozyme fitness (log ratio)” value read?
The value was -0.705.

Which “polymerase ribozyme fitness (log ratio)” value does the source give for C8A U9G A41G G69U here?
Its value is -0.102.

Which “polymerase ribozyme fitness (log ratio)” value does the source give for C8A G23A A66G G69U C104U A118G here?
The value was -5.28.

For C8G A27U G36A G42U C76A U96A U109A U116G, which “polymerase ribozyme fitness (log ratio)” value is on record?
Its value is -6.96.

Which “polymerase ribozyme fitness (log ratio)” value does the source give for C8A C49U C73G here?
The value was -1.1.

Which “polymerase ribozyme fitness (log ratio)” value does the source give for C8G A16G A90C U96C U112A here?
Its value is 0.488.

For C8A G93U U106A, which “polymerase ribozyme fitness (log ratio)” value is on record?
Its value is -0.449.

Which “polymerase ribozyme fitness (log ratio)” value does the source give for C8A G35U G58C here?
Its value is -4.74.

For C8A U14G G61U C123A U131A G135U, which “polymerase ribozyme fitness (log ratio)” value is on record?
The value was 1.21.

Which “polymerase ribozyme fitness (log ratio)” value does the source give for C8A G36A G57A G61A C72G here?
Its value is -1.48.

For C8A C72U U109G, which “polymerase ribozyme fitness (log ratio)” value is on record?
The value was -3.8.

For C8A G36U U112A G127U, which “polymerase ribozyme fitness (log ratio)” value is on record?
Its value is 2.16.

For C8A U30A A46C U106C C123U, which “polymerase ribozyme fitness (log ratio)” value is on record?
The value was -5.15.

For C8A G45A A90U G117A, which “polymerase ribozyme fitness (log ratio)” value is on record?
The value was -1.14.

Which “polymerase ribozyme fitness (log ratio)” value does the source give for C8A G63A C98A here?
The value was -5.9.

With C8A G52U G60C A91U U112A A118C U131C as the variant, how does the “polymerase ribozyme fitness (log ratio)” value read?
Its value is -1.41.

For C8A G71U, which “polymerase ribozyme fitness (log ratio)” value is on record?
The value was -0.261.

For C8A C80U C88U U133A, which “polymerase ribozyme fitness (log ratio)” value is on record?
Its value is -0.694.

With C8A C94A as the variant, how does the “polymerase ribozyme fitness (log ratio)” value read?
Its value is -0.131.

With C8A G45U C56U C73U A84C A95U as the variant, how does the “polymerase ribozyme fitness (log ratio)” value read?
The value was -1.85.

Which “polymerase ribozyme fitness (log ratio)” value does the source give for C8A U132A here?
Its value is 0.369.

For C8A G51U, which “polymerase ribozyme fitness (log ratio)” value is on record?
The value was -3.89.

For C8A C49A, which “polymerase ribozyme fitness (log ratio)” value is on record?
Its value is 0.247.

Which “polymerase ribozyme fitness (log ratio)” value does the source give for C8A C124U here?
The value was 1.95.

With C8A U38A G42U G45A G61U as the variant, how does the “polymerase ribozyme fitness (log ratio)” value read?
Its value is -1.89.

Which “polymerase ribozyme fitness (log ratio)” value does the source give for C8A U59G G107U here?
Its value is -5.05.

With C8A U129C as the variant, how does the “polymerase ribozyme fitness (log ratio)” value read?
The value was -1.05.

With C8A G19A C88G A95C as the variant, how does the “polymerase ribozyme fitness (log ratio)” value read?
The value was -5.8.
